Where a chain is given by its changes, count along the chain named. Names may count otherwise. “Also recorded” adds a separate entry of the source. Blank lines part the entries; values can stand above or below the molecule they belong to.
Columns and labels:
[1] = system: eNOS expression; assay: eNOS expression by Western blot in ACE cells; format: cell-based, bovine; details: equal concentrations, two days
Protocol: At the end of incubation, total cell lysates were prepared, and eNOS protein levels were determined by Western blot analysis.
Bovine adrenal cortex capillary endothelial cells (ACE) were prepared and maintained as previously described (Ferrara et.al., 1989 Biochem. Biophys. Res. Commun. 161:851–858). Briefly, cells were plated onto 6-well tissue culture plates (Costar) and grown in low glucose Dulbecco's modified Eagle's medium, supplemented with 2 mM […] (Life Technologies), 10% bovine calf serum (HyClone Lab., Inc.) and 100 μg/ml Penicillin/Streptomycin (Life Technologies). ACE cells were used between passages 4 and 8.
Medium was changed every 24 hours.
The methods for cell lysis and Western blot (WB) have been described in Shen et al., 1998 J. Biol. Chem. 273:29979–29985. A monoclonal anti-eNOS antibody was used at 1:2500 to probe eNOS protein. […] The protein bands were scanned by a densitometer and the relative intensities were quantified using IMAGEQUANT® software (Molecular Dynamics).
Confluent ACE cells were incubated with 500 pM rhVEGF. […] Equal amounts of protein were denatured under reducing conditions and separated in a 10% Novex mini gel and transferred to PVDF membrane. eNOS protein signals were visualized by ECL and quantified using densitometry.

[2] = molecular target: KDR receptor (Homo sapiens, UniProt P35968); assay: KDR receptor binding ELISA (inhibition of biotinylated native VEGF (8-109) binding); details: second figure of the cell, ratio to native VEGF (8-109)
KDR receptor, sequence (P35968 20-327 limits assumed): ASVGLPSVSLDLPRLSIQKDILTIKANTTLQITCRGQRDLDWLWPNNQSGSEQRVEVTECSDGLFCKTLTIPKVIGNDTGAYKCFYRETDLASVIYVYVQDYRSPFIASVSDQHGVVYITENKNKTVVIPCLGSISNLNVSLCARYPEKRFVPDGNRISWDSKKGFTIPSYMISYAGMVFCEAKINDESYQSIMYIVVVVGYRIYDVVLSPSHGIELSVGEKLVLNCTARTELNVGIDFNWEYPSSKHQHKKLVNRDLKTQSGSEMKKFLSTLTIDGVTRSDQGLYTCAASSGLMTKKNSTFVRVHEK
Protocol: Receptor binding assays were performed in 96-well immunoplates (Maxisorp, Nunc-Immunoplate, Nalge Nunc International, Rochester, N.Y.). Each well was coated with 100 μl of a solution containing 8 μg/ml of a monoclonal antibody to KDR known as MAKD5 (Genentech, South San Francisco, Calif.) in 50 mM carbonate buffer at pH 9.6 and incubated at 4° C. overnight. The supernatant was discarded, the wells were washed three times in washing buffer (0.05% Tween 20 in PBS), and the plate was blocked (150 μl per well) with block buffer (0.5% BSA, 0.01% thimerosal in PBS) at room temperature for one hour. The supernatant was discarded, and the wells were washed.
(§1) Aliquots of this mixture (100 μl) were added to the precoated microtiter wells and the plate was incubated for 1 hour at room temperature. […] The wells were then incubated with 3, 3′, 5,5′-tetramethyl benzidine (0.2 gram/liter; Kirkegaard & Perry Laboratories, Gaithersburg, Md.) for about 10 minutes at room temperature. Absorbance was read at 450 nm on a Vmax plate reader (Molecular Devices, Menlo Park, Calif.).
(§2) Titration curves were fit with a four-parameter nonlinear regression curve-fitting program (KaleidaGraph, Synergy Software, Reading, Pa.).

[3] = system: Flt-1 receptor; assay: Flt-1 receptor binding ELISA (inhibition of biotinylated native VEGF binding to Flt-IgG); details: second figure of the cell, ratio to native VEGF (8-109)
Flt-1 receptor, sequence (P17948 27-327 limits assumed): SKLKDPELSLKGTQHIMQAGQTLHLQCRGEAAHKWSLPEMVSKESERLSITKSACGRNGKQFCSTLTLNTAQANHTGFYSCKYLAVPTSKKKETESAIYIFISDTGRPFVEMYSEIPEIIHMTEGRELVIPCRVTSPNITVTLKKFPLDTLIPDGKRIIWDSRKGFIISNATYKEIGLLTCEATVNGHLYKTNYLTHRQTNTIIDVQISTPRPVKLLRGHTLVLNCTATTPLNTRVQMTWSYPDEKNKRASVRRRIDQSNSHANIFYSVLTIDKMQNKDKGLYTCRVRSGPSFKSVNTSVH
Protocol: Receptor binding assays were performed in 96-well immunoplates (Maxisorp, Nunc-Immunoplate, Nalge Nunc International, Rochester, N.Y.). Each well was coated with 100 μl of a solution containing 2 μg/ml of rabbit F(ab′)2 to human IgG Fc (Jackson ImmunoResearch, West Grove, Pa.) in 50 mM carbonate buffer at pH 9.6 and incubated at 4° C. overnight. The supernatant was then discarded, the wells were washed three times in washing buffer (0.05% Tween 20 in PBS), and the plate was blocked (150 μl per well) with block buffer (0.5% BSA, 0.01% thimerosal in PBS) at room temperature for one hour. The supernatant was discarded, and the wells were washed.
The wells were filled with 100 μl of a solution containing Flt-IgG (a chimeric Flt-human Fc molecule) at 50 ng/ml in assay buffer (0.5% BSA, 0.05% Tween 20 in PBS). The wells were incubated at room temperature for 1 hour and then washed three times in wash buffer (0.05% Tween 20 in PBS).
as §1, with “the” for “this”, “2 hours” for “1 hour”, “g/liter,” for “gram/liter;”
as §2

B1: PLGF: recombinant human placental growth factor (protein, UniProt P49763 19-221, looked up)
Placenta growth factor: LPAVPPQQWALSAGNGSSEVEVVPFQEVWGRSYCRALERLVDVVSEYPSEVEHMFSPSCVSLLRCTGCCGDENLHCVPVETANVTMQLLKIRSGDRPSYVELTFSQHVRCECRHSPGRQSPDMPGDFRADAPSFLPPRRSLPMLFRMEWGCALTGSQSAVWPSSPVPEEIPRMHPGRNGKKQQRKPLREKMKPERCGDAVPRR
- eNOS expression with VEGF forms and receptor-selective variants [1]: had no effect; also recorded: did not

B2: LK-VRB-4s: VEGF (1-109) variant, F17I/M18E/Y21F/Q22E/Y25I (protein)
chain: APMAEGGGQNHHEVVKIEDVFERSICHPIETLVDIFQEYPDEIEYIFKPSCVPLMRCGGCCNDEGLECVPTEESNITMQIMRIKPHQGQHIGEMSFLQHNKCECRPKKD
- Relative Binding Affinity KDR Receptor [2]: 1 nM/1

B4: LK-VRB-10s: VEGF (1-109) variant, Y25S/D63S/G65M/L66R (protein)
chain: B2 chain with I17F, E18M, F21Y, E22Q, I25S, D63S, G65M, L66R
- Relative Binding Affinity FLT-1 Receptor [3]: />2400
- Relative Binding Affinity KDR Receptor [2]: 0.5 nM/0.5

B5: LK-VRB-8s*: VEGF (1-109) variant, Y2IL/D63S/G65M/LG6R as printed (protein)
chain: B2 chain with I17F, E18M, F21L, E22Q, I25Y, D63S, G65M, L66R
- Relative Binding Affinity FLT-1 Receptor [3]: />21000
- Relative Binding Affinity KDR Receptor [2]: 0.5 nM/0.5

B9: LK-VRB-12s: VEGF (1-109) variant, M18E/Q22R/D63S/G65M/L66R (protein)
chain: B2 chain with I17F, F21Y, E22R, I25Y, D63S, G65M, L66R
- Relative Binding Affinity FLT-1 Receptor [3]: />5600
- Relative Binding Affinity KDR Receptor [2]: 0.4 nM/0.4

B10: LK-VRB-7s*: VEGF (1-109) variant, M18E/D63S/G65M/L66R (protein)
chain: B2 chain with I17F, F21Y, E22Q, I25Y, D63S, G65M, L66R
- Relative Binding Affinity FLT-1 Receptor [3]: />15000
- Relative Binding Affinity KDR Receptor [2]: 1 nM/1

B11: LK-VRB-14s: VEGF (1-109) variant, Y21L/Q22R/D63S/G65M/L66R (protein)
chain: B2 chain with I17F, E18M, F21L, E22R, I25Y, D63S, G65M, L66R
- Relative Binding Affinity FLT-1 Receptor [3]: />2900
- Relative Binding Affinity KDR Receptor [2]: 0.5 nM/0.5

B12: LK-VRB-13s: VEGF (1-109) variant, M18E/Y25S/D63S/G65M/L66R (protein)
chain: B2 chain with I17F, F21Y, E22Q, I25S, D63S, G65M, L66R
- Relative Binding Affinity FLT-1 Receptor [3]: />14000
- Relative Binding Affinity KDR Receptor [2]: 14 nM/14

B18: LK-VRB-9s: VEGF (1-109) variant, Q22R/D63S/G65M/L66R (protein)
chain: B2 chain with I17F, E18M, F21Y, E22R, I25Y, D63S, G65M, L66R
- Relative Binding Affinity FLT-1 Receptor [3]: /300
- Relative Binding Affinity KDR Receptor [2]: 0.5 nM/0.5

B19: LK-VRB-3s: VEGF (1-109) variant, F17I/M18E/Y21F/Q22K/Y25S (protein)
chain: B2 chain with E22K, I25S
- Relative Binding Affinity KDR Receptor [2]: 1 nM/1

B20: LK-VRB-11s: VEGF (1-109) variant, M18E/Y21L/D63S/G65M/L66R (protein)
chain: B2 chain with I17F, F21L, E22Q, I25Y, D63S, G65M, L66R
- Relative Binding Affinity FLT-1 Receptor [3]: />14000
- Relative Binding Affinity KDR Receptor [2]: 2 nM/2

Continued, values first:

- Relative Binding Affinity FLT-1 Receptor [3]: />21000
- Relative Binding Affinity KDR Receptor [2]: 2 nM/2
B3: LK-VRB-15s: VEGF (1-109) variant, Y21L/Y25S/D63S/G65M/L66R (protein)
chain: B2 chain with I17F, E18M, F21L, E22Q, I25S, D63S, G65M, L66R

- Relative Binding Affinity FLT-1 Receptor [3]: />5600
- Relative Binding Affinity KDR Receptor [2]: 3 nM/3
B6: LK-VRB-21s: VEGF (1-109) variant, D63S/M18E/Y21L/Q22R/Y25S (protein)
chain: B2 chain with I17F, F21L, E22R, I25S, D63S

- Relative Binding Affinity FLT-1 Receptor [3]: />30
- Relative Binding Affinity KDR Receptor [2]: 4 nM/4
B7: LK-VRB-22s: VEGF (1-109) variant, GG5M/M18E/Y21L/Q22R/Y25S as printed (protein)
chain: B2 chain with I17F, F21L, E22R, I25S, G65M

- Relative Binding Affinity FLT-1 Receptor [3]: />10000
- Relative Binding Affinity KDR Receptor [2]: 2 nM/2
B8: LK-VRB-20s: VEGF (1-109) variant, Y21L/Q22R/Y25S/D63S/G65M/L66R (protein)
chain: B2 chain with I17F, E18M, F21L, E22R, I25S, D63S, G65M, L66R

- Relative Binding Affinity FLT-1 Receptor [3]: />18000
- Relative Binding Affinity KDR Receptor [2]: 10 nM/10
B13: LK-VRB-24s: VEGF (1-109) variant, D63S/G65M/M18E/Y21L/Q22R/Y25S (protein)
chain: B2 chain with I17F, F21L, E22R, I25S, D63S, G65M

- Relative Binding Affinity FLT-1 Receptor [3]: />12000
- Relative Binding Affinity KDR Receptor [2]: 4 nM/4
B14: LK-VRB-25s: VEGF (1-109) variant, D63S/L66R/M18E/Y21L/Q22R/Y25S (protein)
chain: B2 chain with I17F, F21L, E22R, I25S, D63S, L66R

- Relative Binding Affinity FLT-1 Receptor [3]: />1900
- Relative Binding Affinity KDR Receptor [2]: 3 nM/3
B15: LK-VRB-17s: VEGF (1-109) variant, M18E/Y21L/Q22R/D63S/G65M/L66R (protein)
chain: B2 chain with I17F, F21L, E22R, I25Y, D63S, G65M, L66R

- Relative Binding Affinity FLT-1 Receptor [3]: />8500
- Relative Binding Affinity KDR Receptor [2]: 11 nM/11
B16: LK-VRB-23s: VEGF (1-109) variant, L66R/M185/Y21L/Q22R/Y25S as printed (protein)
chain: B2 chain with I17F, F21L, E22R, I25S, L66R

- Relative Binding Affinity FLT-1 Receptor [3]: />1400
- Relative Binding Affinity KDR Receptor [2]: 0.6 nM/0.6
B17: LK-VRB-16s: VEGF (1-109) variant, Q22R/Y25S/D63S/G65M/L66R (protein)
chain: B2 chain with I17F, E18M, F21Y, E22R, I25S, D63S, G65M, L66R

- Relative Binding Affinity FLT-1 Receptor [3]: />25000
- Relative Binding Affinity KDR Receptor [2]: 23 nM/23
B21: LK-VRB-26s: VEGF (1-109) variant, G65M/L66R/M18E/Y21L/Q22R/Y25S (protein)
chain: B2 chain with I17F, F21L, E22R, I25S, G65M, L66R

- Relative Binding Affinity FLT-1 Receptor [3]: />35000
- Relative Binding Affinity KDR Receptor [2]: 7 nM/7
B22: LK-VRB-19s: VEGF (1-109) variant, M18E/Q22R/Y25S/D63S/G65M/L66R as printed (same as 18s) (protein)
chain: B2 chain with I17F, F21Y, E22R, I25S, D63S, G65M, L66R

Source: patent US7078382B1, “Modulation of eNOS activity and therapeutic uses thereof” (Genentech, Inc., priority 1999, dated 2006)
